Laboratory results published in article PMC6232143.

Key:
[1] = target: His6.TssA2^A Nt2-CTD (223-478) (A. hydrophila); experiment: SEC-MALS; S200 10/300 column, 50 mM Tris.HCl (pH 8.0), 500 mM NaCl, ~20 °C; 4.5-6.8 mg/ml
[2] = target: His6.TssA2^A Nt2-CTD (223-478) (A. hydrophila); experiment: crystal structure; His6.TssA2^A Nt2-CTD (223-478), 3.13 Å, ten subunits in the asymmetric unit
[3] = target: Native TssA1^B (1-373) (B. cenocepacia); experiment: SEC-MALS; Superose-6 10/300 column, 10 mM phosphate buffer (pH 7.4), 2.7 mM KCl, 137 mM NaCl, ~20 °C
[4] = target: TssA1^B CTD fragment (303-347) (B. cenocepacia); experiment: crystal structure; TssA1^B CTD fragment 303-347 (clipped 303-373 construct), 1.78 Å, spacegroup I222
[5] = target: His6.TssA2^A Nt2 (223-387) (A. hydrophila); experiment: crystal structure; His6.TssA2^A Nt2 (223-387), ethyl mercury phosphate derivative, 2.16 Å, two monomers in the asymmetric unit
[6] = target: TssA2^A Nt1-Nt2.His6 (231-374) (A. hydrophila); experiment: crystal structure; TssA2^A Nt2 (231-374) from the Nt1-Nt2.His6 construct, 1.76 Å, four molecules in the asymmetric unit
[7] = target: His6.TssA1^B CTD H12-H14 (303-358) (B. cenocepacia); experiment: crystal structure; His6.TssA1^B CTD H12-H14 (303-358), 2.35 Å, two molecules in the asymmetric unit
[8] = target: His6.TssA2^A (1-478) (A. hydrophila); experiment: SEC-MALS; S200 10/300 column, 50 mM Tris.HCl (pH 8.0), 500 mM NaCl, ~20 °C; 4.5-6.8 mg/ml
[9] = target: TssA1^B CTD (303-373) (B. cenocepacia); experiment: crystal structure; TssA1^B CTD (303-373), 3.08 Å, spacegroup I222, eight monomers in the asymmetric unit
[10] = target: His6.TssA2^A CTD (381-478) (A. hydrophila); experiment: SEC-MALS; S200 10/300 column, 50 mM Tris.HCl (pH 8.0), 500 mM NaCl, ~20 °C; 4.5-6.8 mg/ml

Substance “His6.TssA2^A Nt2-CTD (223-478) (domain or fragment)” has a stoichiometry N [1] of 10 and a stoichiometry N [2] of 10.
In the case of “Native TssA1^B (1-373) (natural protein)”, the stoichiometry N [3] is reported as 30 subunits.
For “TssA1^B CTD fragment (303-347) (domain or fragment)”, the stoichiometry N [4] was 2.
“His6.TssA2^A Nt2 (223-387) (domain or fragment)” gave a stoichiometry N [5] of 2.
With “TssA2^A Nt1-Nt2.His6 (231-374) (domain or fragment)” the stoichiometry N [6] was 2.
Substance “His6.TssA1^B CTD H12-H14 (303-358) (domain or fragment)” has a stoichiometry N [7] of 2.
In the case of His6.TssA2^A (1-478) (natural protein), the stoichiometry N [8] is reported as 10.
In the case of “TssA1^B CTD (303-373) (domain or fragment)”, the stoichiometry N [9] is reported as 32 subunits.
Work on “His6.TssA2^A CTD (381-478) (domain or fragment)” yielded a stoichiometry N [10] of 10.
